Test results from patent publication US20240131155A1, “T CELLS FOR USE IN THERAPY” (Erasmus University Medical Center Rotterdam, priority 2021, published 2024).

Legend:
[1] = biological target: MLN epitope (…) presented by HLA-A2 on cells (human); test: cell-based or functional assay
[2] = biological target: T1, HLA-A2 (HLA-A2:01) on T2 cells (human); test: HLA-A2 stabilization assay on T2 cells (anti-HLA-A2-PE, flow cytometry), single peptide concentration 25 ug/mL [panel E]
T1 construct: detected with anti-HLA-A2 mAb BB7.2

[3] = biological target: T1, HLA-A2 (HLA-A2:01) on T2 cells; test: HLA-A2 stabilization assay on T2 cells (anti-HLA-A2-PE, flow cytometry), single peptide concentration [panel C; D00007 Figure 3 continued, panel E]
[4] = biological target: T1, HLA-A2 (HLA-A2:01) on T2 cells; test: HLA-A2 stabilization assay on T2 cells (anti-HLA-A2-PE, flow cytometry), single peptide concentration [panel D]
[5] = biological target: T1, HLA-A2 (HLA-A2:01) on T2 cells; test: HLA-A2 stabilization assay on T2 cells, peptide titration; EC50 calculated with GraphPad [panel E]
[6] = biological target: T1, HLA-A2 (HLA-A2:01) on T2 cells; test: HLA-A2 stabilization assay on T2 cells, peptide titration; amplitude relative to that of reference peptide YLE [panel D]
[7] = biological target: T1, HLA-A2 (HLA-A2:01) on T2 cells; test: HLA-A2 stabilization assay on T2 cells, peptide titration; EC50 calculated with GraphPad [panel D]
[8] = biological target: T1, HLA-A2 (HLA-A2:01) on T2 cells; test: HLA-A2 stabilization assay on T2 cells, peptide titration; amplitude = highest data point corrected for baseline [panel E]
[9] = biological target: T1, HLA-A2 (HLA-A2:01) on T2 cells; test: HLA-A2 stabilization assay on T2 cells, peptide titration; amplitude relative to that of reference peptide YLE; EC50 cell is 'x' [panel D]
[10] = biological target: T2, ROPN1B peptide on HLA-A*02:01 (human); test: multimer staining
T2 peptide: MLNYIEQEV

[11] = biological target: T3, ROPN1B epitope 1 (MLN) with alanine at position 9 peptide on HLA-A*02:01 (human); test: cytokine release
T3 peptide: MLNYIEQEA

[12] = biological target: T4, ROPN1B epitope 1 (MLN) with alanine at position 6 peptide on HLA-A*02:01 (human); test: cytokine release
T4 peptide: MLNYIAQEV

[13] = biological target: T5, gp100 peptide on HLA-A*02:01 (human); test: cytokine release
T5 peptide: YLEPGPVTA

[14] = biological target: T6, ROPN1B epitope 1 (MLN) with alanine at position 8 peptide on HLA-A*02:01 (human); test: cytokine release
T6 peptide: MLNYIEQAV

[15] = biological target: T7, ROPN1 (counterpart of the ROPN1B MLN epitope, one residue different) peptide on HLA-A*02:01 (human); test: cytokine release
T7 peptide: MLNYMEQEV

B1: MLN-TCR2 (epitope 1 (MLN)-specific TCR) (TCR, V domains shown)
V domain 1: RGEDVEQSLFLSVREGDSSVINCTYTDSSSTYLYWYKQEPGAGLQLLTYIFSNMDMKQDQRLTVLLNKKDKHLSLRIADTQTGDSAIYFCAEDGGGSYIPTFGRGTSLIVHP
V domain 2: EAGVTQFPSHSVIEKGQTVTLRCDPISGHDNLYWYRRVMGKEIKFLLHFVKESKQDESGMPNNRFLAERTGGTYSTLKVQPAELEDSGVYFCASSPGPGQNSPLHFGNGTRLTVTE
Question: How did the “EC50 of T cell IFN-gamma production, peptide titration on BSM cells” value [1] turn out when B1 was run?
Answer: 0.011 µM

B2: RLIIRAEEL (peptide)
peptide: RLIIRAEEL
notes: ROPN1 and ROPN1B, predicted
Question: What does the source list for B2?
Answer: Minimum stability [2]: 0.91 fold change over baseline; binding result [3]: no binding (tested: 25 ug/mL); Minimum stability [4]: 0.91 fold change over baseline

B3: NY-ESO1 peptide SLLMWITQV (peptide)
peptide: SLLMWITQV
notes: also called NY-ESO peptide SLL
Question: What does the source list for B3?
Answer: EC50 [5]: 5.08 µM; Amplitude [6]: 0.93 relative to YLE; EC50 [7]: 5.08 µM; Amplitude [8]: 4220 geometric mean normalized to baseline

B4: YIAEVDGEI (peptide)
peptide: YIAEVDGEI
notes: ROPN1B, predicted
Question: With B4 as the binder, how does the Minimum stability [2] read?
Answer: 1.16 fold change over baseline

Question: What about the Amplitude [9] of the same binder?
Answer: 0.939 relative to YLE

Question: And the Minimum stability [4]?
Answer: 1.41 fold change over baseline

B5: MLN-TCR2 (TCR, V domains shown)
Valpha: GEDVEQSLFLSVREGDSSVINCTYTDSSSTYLYWYKQEPGAGLQLLTYIFSNMDMKQDQRLTVLLNKKDKHLSLRIADTQTGDSAIYFCAEDGGGSYIPTFGRGTSLIVHP
Vbeta: EAGVTQFPSHSVIEKGQTVTLRCDPISGHDNLYWYRRVMGKEIKFLLHFVKESKQDESGMPNNRFLAERTGGTYSTLKVQPAELEDSGVYFCASSPGPGQNSPLHFGNGTRLTVT
Question: Which results are given for B5?
Answer: binding result [10]: recognises; binding result [11]: recognises; binding result [12]: recognises; binding result [13]: no recognition; binding result [14]: recognises; binding result [15]: no recognition
